In experiment [1] the target is human KLRB1 on CHO-K1 (human). The experiment is described as follows: FACS.
Experiment [2] has as its target T1, cynomolgus KLRB1 ECD (cynomolgus).
T1 chain: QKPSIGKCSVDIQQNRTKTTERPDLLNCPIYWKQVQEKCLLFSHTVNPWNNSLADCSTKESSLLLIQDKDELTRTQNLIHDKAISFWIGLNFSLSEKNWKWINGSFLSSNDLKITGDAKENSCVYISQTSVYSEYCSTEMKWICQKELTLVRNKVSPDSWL
The experiment in a line: SPR.

Experiment [3] has as its target T2, cynomolgus KLRB1 on CHO-K1 (cynomolgus).
T2 chain: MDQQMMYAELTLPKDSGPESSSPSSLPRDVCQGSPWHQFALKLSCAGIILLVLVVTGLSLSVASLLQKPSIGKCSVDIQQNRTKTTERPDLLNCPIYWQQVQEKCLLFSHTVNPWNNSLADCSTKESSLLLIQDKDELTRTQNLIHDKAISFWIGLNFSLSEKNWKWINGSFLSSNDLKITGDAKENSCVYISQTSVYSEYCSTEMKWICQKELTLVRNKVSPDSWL
The experiment in a line: FACS.

For experiment [4], the target named is T1, cynomolgus KLRB1 ECD. The experiment is described as follows: ELISA.
Experiment [5] addresses human KLRB1 on CHO-K1 (human). The experiment in a line: competition, CLEC2D, FACS.
The target of experiment [6] is human KLRB1 on CHO-K1 (human). The experiment in a line: competition, CLEC2D, FACS. The source holds these as a separate data set.
The target of experiment [7] is human KLRB1 ECD (human). The experiment is described as follows: ELISA.
Sequence of human KLRB1 ECD (human) (chain, as listed by the source): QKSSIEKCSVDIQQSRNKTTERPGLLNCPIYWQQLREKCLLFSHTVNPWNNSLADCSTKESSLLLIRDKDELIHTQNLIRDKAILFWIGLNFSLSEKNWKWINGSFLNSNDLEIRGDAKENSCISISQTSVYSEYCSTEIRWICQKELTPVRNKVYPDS
For experiment [8], the target named is human KLRB1 on CHO-K1 (human). The experiment in a line: FACS. The source holds these as a separate data set.
Experiment [9] addresses T1, cynomolgus KLRB1 ECD. The experiment in a line: ELISA.
The target in experiment [10] is human KLRB1 ECD (human). The experiment is described as follows: SPR.
Experiment [11] addresses T2, cynomolgus KLRB1 on CHO-K1. The experiment in a line: FACS.
Experiment [12] concerns the target human KLRB1 ECD (human). The experiment is described as follows: ELISA. The source holds these as a separate data set.
Experiment [13] has as its target human KLRB1 on CHO-K1 (human). The experiment in a line: FACS. This is another data set of the same source.
The target of experiment [14] is human KLRB1 ECD (human). The experiment in a line: ELISA. This is another data set of the same source.
Experiment [15] addresses T1, cynomolgus KLRB1 ECD. The experiment is described as follows: ELISA.
Experiment [16] has as its target human KLRB1 ECD (human). The experiment in a line: SPR. This is another data set of the same source.
The target of experiment [17] is T2, cynomolgus KLRB1 on CHO-K1. The experiment is described as follows: FACS.

Like-named read-outs stand apart in the source and are kept apart here.

Sequence of human KLRB1 on CHO-K1 (human) (chain, as listed by the source): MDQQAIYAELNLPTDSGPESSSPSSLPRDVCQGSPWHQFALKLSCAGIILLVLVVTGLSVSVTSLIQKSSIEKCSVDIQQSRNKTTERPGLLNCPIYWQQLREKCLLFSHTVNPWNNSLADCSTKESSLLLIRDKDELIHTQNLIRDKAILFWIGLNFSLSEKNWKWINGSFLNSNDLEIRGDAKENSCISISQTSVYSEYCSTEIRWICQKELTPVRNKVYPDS

B1: Hu47A5H2-11 (antibody, V domains shown)
VH: QVQLVQSGAEVKKPGASVKVSCKASGYSFTGYWMHWVRQAPGQGLEWMGMIHPSDSETRLNQKFKDRVTMTVDKSTSTVYMELSSLRSEDTAVYYCASEGLRRGSFAYWGQGTLVTVSS
VL: DIVLTQSPDSLAVSLGERATINCRASESVDNYGMTFMSWFQQKPGQPPKLLIYAASNQGSGVPDRFSGSGSGTDFTLTISSLQAEDVAVYYCQQSKEVPYTFGQGTKLEIK
Consider B1, for which the EC50 in the experiment with human KLRB1 on CHO-K1 [1] was 1.6 nM; in experiment [3], 14.9 nM; with cynomolgus KLRB1 ECD [4] it was 0.024 nM; with human KLRB1 ECD [7], 0.0238 nM; with human KLRB1 on CHO-K1 [8], 3.01 nM; with cynomolgus KLRB1 ECD [9], 0.01 nM. Besides, the EC50 in experiment [11] is roughly 1.77 nM; with human KLRB1 ECD [12] it was 0.016 nM. The values for the Kd with cynomolgus KLRB1 ECD [2] and with human KLRB1 ECD [10] were 1.94 nM and 0.639 nM, respectively. Moreover, the IC50 in the experiment with human KLRB1 on CHO-K1 [5] worked out at 1.97 nM; with human KLRB1 on CHO-K1 [6] it was 3.61 nM.

B2: Hu50A8F2-04 (antibody, V domains shown)
VH: QVQLVQSGAEVKKPGASVKVSCKASGYTFIDYYINWVRQAPGQGLEWMGWIFPGSGHTKYNENFKGRVTMTRDTSTSTVYMELSSLRSEDTAVYYCARGDRSALGYFDYWGQGTTVTVSS
VL: DIQLTQSPSSLSASVGDRVTITCTASSSVSSTYLHWYQQKPGKSPKLLIYSTSNLASGVPSRFSGSGSGTDYTLTISSLQPEDAATYYCHQYHRSPLTFGQGTKLEIK
In the case of B2, the EC50 in the experiment with human KLRB1 on CHO-K1 [13] was 5.45 nM; in the experiment with human KLRB1 ECD [14], 0.0201 nM; with human KLRB1 on CHO-K1 [8], 6.81 nM; in the experiment with human KLRB1 ECD [12] it was 0.033 nM. The binding result (with cynomolgus KLRB1 ECD [15]; in [17]) was “no binding” throughout. This molecule yielded a Kd in the experiment with human KLRB1 ECD [16] of 0.693 nM.

The values above are taken from patent US20260356955 (published 2026).
